Reference: publication PMC3859847 (Biochemistry, 2013)

T1: rat liver glucokinase regulatory protein (rat, UniProt Q07071 1-627)
T1 sequence: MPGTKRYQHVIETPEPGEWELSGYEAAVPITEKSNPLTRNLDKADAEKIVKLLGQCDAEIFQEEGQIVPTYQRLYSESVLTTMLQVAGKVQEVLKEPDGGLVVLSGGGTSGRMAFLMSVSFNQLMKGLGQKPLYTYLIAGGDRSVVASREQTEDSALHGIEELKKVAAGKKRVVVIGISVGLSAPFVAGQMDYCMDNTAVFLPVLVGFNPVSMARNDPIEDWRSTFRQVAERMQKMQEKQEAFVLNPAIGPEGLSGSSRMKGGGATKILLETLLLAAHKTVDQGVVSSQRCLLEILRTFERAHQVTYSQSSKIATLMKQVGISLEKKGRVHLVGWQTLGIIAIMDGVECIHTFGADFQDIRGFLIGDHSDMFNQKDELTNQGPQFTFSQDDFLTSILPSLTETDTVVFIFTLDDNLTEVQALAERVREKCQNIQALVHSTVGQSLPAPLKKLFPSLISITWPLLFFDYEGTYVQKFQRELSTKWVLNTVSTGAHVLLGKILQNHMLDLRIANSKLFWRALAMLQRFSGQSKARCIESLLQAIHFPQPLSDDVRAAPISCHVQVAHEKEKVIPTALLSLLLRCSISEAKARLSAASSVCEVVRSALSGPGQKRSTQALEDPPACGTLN


Columns and labels:
[1] = target: Glucokinase (Homo sapiens) (UniProt P35557); conditions: cited from earlier work
[2] = target: T1, rat liver glucokinase regulatory protein; experiment: crystal structure

Row | binding result [2] | Molecule | Kd [1]
1 | – | GKRP (from UniProt Q07071) | 1000 nM
2 | binds | human pancreatic glucokinase (enzyme) DDRARMEAAKKEKVEQILAEFQLQEEDLKKVMRRMQKEMDRGLRLETHEEASVKMLPTYVRSTPEGSEVGDFLSLDLGGTNFRVMLVKVGEGEEGQWSVKTKHQMYSIPEDAMTGTAEMLFDYISECISDFLDKHQMKHKKLPLGFTFSFPVRHEDIDKGILLNWTKGFKASGAEGNNVVGLLRDAIKRRGDFEMDVVAMVNDTVATMISCYYEDHQCEVGMIVGTGCNACYMEEMQNVELVEGDEGRMCVNTEWGAFGDSGELDEFLLEYDRLVDESSANPGQQLYEKLIGGKYMGELVRLVLLRLVDENLLFHGEASEQLRTRGAFETRFVSQVESDTGDRKQIYNILSTLGLRPSTTDCDIVRRACESVSTRAAHMCSAGLAGVINRMRESRSEDVMRITVGVDGSVYKLHPSFKERFHASVRRLTPSCEITFIESEEGSGRGAALVSAVACKKACMLGQ | –
